We go through six molecules from paper PMC7017424, “Effects of Substrate-Binding Site Residues on the Biochemical Properties of a Tau Class Glutathione S-Transferase from Oryza sativa” (Genes, 2019).

In one data set the target is T1, OsGSTU17 (Oryza sativa, UniProt Q93WY5).
T1 construct: about 25 kDa subunit; dimeric enzyme; mutants L112A and W165A expressed at 20 °C
T1 sequence (Q93WY5 1-223): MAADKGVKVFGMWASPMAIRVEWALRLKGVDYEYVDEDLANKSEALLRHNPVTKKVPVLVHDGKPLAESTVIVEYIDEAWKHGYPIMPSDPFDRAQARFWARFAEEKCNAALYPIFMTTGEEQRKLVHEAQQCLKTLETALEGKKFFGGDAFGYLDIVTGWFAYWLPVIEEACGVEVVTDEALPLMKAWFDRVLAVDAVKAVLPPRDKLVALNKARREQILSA
Description: absorbance at […] nm, initial rate […] s, non-linear regression (Hyper32). The data set is classed as biochemical. The settings on record: 1.0 mM GSH fixed, NBD-Cl 0.1-1.0 mM, 25 °C; apparent Km; wild-type value 'detected again', obtained from Yang et al. [31]; read-out: NBD-Cl / K m /; cited from earlier work.

Substrate in the data set “purified protein”: O=[N+]([O-])c1ccc(Cl)c2nonc12
Description: purified protein. The following applies: 1.0 mM GSH fixed, NBD-Cl 0.1-1.0 mM, 25 °C, apparent Km. The data set is classed as biochemical, Oryza sativa.

On to `O=[N+]([O-])c1ccc(Cl)c2nonc12` [NBD-Cl, 7-chloro-4-nitrobenzo-2-oxa-1,3-diazole], for which, at OsGSTU17, the Km is 324 ± 16 µM.

B1: OsGSTU17 (Oryza sativa Japonica Group; W161A) (protein)
chain: MAADKGVKVFGMWASPMAIRVEWALRLKGVDYEYVDEDLANKSEALLRHNPVTKKVPVLVHDGKPLAESTVIVEYIDEAWKHGYPIMPSDPFDRAQARFWARFAEEKCNAALYPIFMTTGEEQRKLVHEAQQCLKTLETALEGKKFFGGDAFGYLDIVTGAFAYWLPVIEEACGVEVVTDEALPLMKAWFDRVLAVDAVKAVLPPRDKLVALNKARREQILSA
notes: about 25 kDa subunit; dimeric enzyme; mutants L112A and W165A expressed at 20 °C
Regarding B1, in the data set “purified protein” (Km above tested range), the Km was found to be 1117 ± 22 µM; the maximum rate (Vmax) – broadly, the top rate of the reaction or transport when substrate is in excess – is 0.594 µM/min/mg; the catalytic constant (kcat) (commonly the maximal rate divided by the concentration of active sites) was found to be 0.999 s⁻¹; the specificity constant (kcat/Km) (usually the turnover number divided by the Michaelis constant) came out at 894 M⁻¹ s⁻¹.

B2: OsGSTU17 (Oryza sativa Japonica Group; N109A) (protein)
chain: MAADKGVKVFGMWASPMAIRVEWALRLKGVDYEYVDEDLANKSEALLRHNPVTKKVPVLVHDGKPLAESTVIVEYIDEAWKHGYPIMPSDPFDRAQARFWARFAEEKCAAALYPIFMTTGEEQRKLVHEAQQCLKTLETALEGKKFFGGDAFGYLDIVTGWFAYWLPVIEEACGVEVVTDEALPLMKAWFDRVLAVDAVKAVLPPRDKLVALNKARREQILSA
notes: as for B1
B2: in “purified protein”, the Km is 781 ± 34 µM, the maximal velocity (Vmax) turned out to be 0.364 µM/min/mg, the kcat amounted to 0.266 s⁻¹ and the catalytic efficiency (kcat/Km) was determined as 341 M⁻¹ s⁻¹.

B3: OsGSTU17 (Oryza sativa Japonica Group; F162A) (protein)
chain: MAADKGVKVFGMWASPMAIRVEWALRLKGVDYEYVDEDLANKSEALLRHNPVTKKVPVLVHDGKPLAESTVIVEYIDEAWKHGYPIMPSDPFDRAQARFWARFAEEKCNAALYPIFMTTGEEQRKLVHEAQQCLKTLETALEGKKFFGGDAFGYLDIVTGWAAYWLPVIEEACGVEVVTDEALPLMKAWFDRVLAVDAVKAVLPPRDKLVALNKARREQILSA
notes: as for B1
As to B3, in “purified protein” (Km above tested range), the Km came to 3866 ± 871 µM, the maximal velocity (Vmax) worked out at 0.869 µM/min/mg, the turnover number (kcat) was found to be 1.57 s⁻¹ and the kcat/Km came out at 407 M⁻¹ s⁻¹.

B4: OsGSTU17 (Oryza sativa Japonica Group; M17A) (protein)
chain: MAADKGVKVFGMWASPAAIRVEWALRLKGVDYEYVDEDLANKSEALLRHNPVTKKVPVLVHDGKPLAESTVIVEYIDEAWKHGYPIMPSDPFDRAQARFWARFAEEKCNAALYPIFMTTGEEQRKLVHEAQQCLKTLETALEGKKFFGGDAFGYLDIVTGWFAYWLPVIEEACGVEVVTDEALPLMKAWFDRVLAVDAVKAVLPPRDKLVALNKARREQILSA
notes: as for B1
With B4, in the data set “purified protein” (Km above tested range), the Km was 3661 ± 843 µM, the Vmax turned out to be 0.83 µM/min/mg, the kcat came to 0.809 s⁻¹ and the catalytic efficiency (kcat/Km) was 221 M⁻¹ s⁻¹.

B5: OsGSTU17 (Oryza sativa Japonica Group; L112A) (protein)
chain: MAADKGVKVFGMWASPMAIRVEWALRLKGVDYEYVDEDLANKSEALLRHNPVTKKVPVLVHDGKPLAESTVIVEYIDEAWKHGYPIMPSDPFDRAQARFWARFAEEKCNAAAYPIFMTTGEEQRKLVHEAQQCLKTLETALEGKKFFGGDAFGYLDIVTGWFAYWLPVIEEACGVEVVTDEALPLMKAWFDRVLAVDAVKAVLPPRDKLVALNKARREQILSA
notes: as for B1
On to B5, for which, in “purified protein” (Km above tested range), the Km was 1487 ± 79 µM, the Vmax was 0.896 µM/min/mg, the kcat turned out to be 1.75 s⁻¹ and the kcat/Km came out at 1180 M⁻¹ s⁻¹.
